The target of one assay is Human PSMA. In words: BLI (Octet). For orientation: BLI is a label-free optical method that tracks binding on a fibre tip over time.
The target of a further assay is T1, Cyno PSMA.
T1 chain: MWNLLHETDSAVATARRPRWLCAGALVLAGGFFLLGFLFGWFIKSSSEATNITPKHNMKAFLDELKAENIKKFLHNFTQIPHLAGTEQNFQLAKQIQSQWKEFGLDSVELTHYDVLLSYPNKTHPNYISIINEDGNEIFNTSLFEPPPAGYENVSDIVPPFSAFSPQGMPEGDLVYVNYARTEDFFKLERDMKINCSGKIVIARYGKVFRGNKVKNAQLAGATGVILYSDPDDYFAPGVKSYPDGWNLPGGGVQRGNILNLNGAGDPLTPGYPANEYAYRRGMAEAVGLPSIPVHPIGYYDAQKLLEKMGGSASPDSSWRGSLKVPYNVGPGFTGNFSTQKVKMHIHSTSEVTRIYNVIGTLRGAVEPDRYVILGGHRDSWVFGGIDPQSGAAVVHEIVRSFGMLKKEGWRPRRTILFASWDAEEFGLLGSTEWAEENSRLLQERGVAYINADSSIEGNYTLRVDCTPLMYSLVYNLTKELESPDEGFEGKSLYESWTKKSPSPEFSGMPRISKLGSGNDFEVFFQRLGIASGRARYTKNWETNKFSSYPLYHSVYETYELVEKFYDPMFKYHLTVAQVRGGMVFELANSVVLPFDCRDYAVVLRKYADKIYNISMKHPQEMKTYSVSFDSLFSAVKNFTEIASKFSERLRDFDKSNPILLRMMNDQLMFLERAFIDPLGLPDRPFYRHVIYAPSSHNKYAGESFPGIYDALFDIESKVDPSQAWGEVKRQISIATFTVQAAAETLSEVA
In words: BLI (Octet).

B1: XENP14484 (bispecific antibody)
heavy: EVQLVQSGAEVKKPGASVKVSCKTSGYTFTEYTIHWVRQAPGQSLEWMGNINPNNGGTTYNQKFQGRVTITVDKSTSTAYMELSSLRSEDTAVYYCAAGWNFDYWGQGTLVTVSSASTKGPSVFPLAPSSKSTSGGTAALGCLVKDYFPEPVTVSWNSGALTSGVHTFPAVLQSSGLYSLSSVVTVPSSSLGTQTYICNVNHKPSDTKVDKKVEPKSCDKTHTCPPCPAPPVAGPSVFLFPPKPKDTLMISRTPEVTCVVVDVKHEDPEVKFNWYVDGVEVHNAKTKPREEEYNSTYRVVSVLTVLHQDWLNGKEYKCKVSNKALPAPIEKTISKAKGQPREPQVYTLPPSREEMTKNQVSLTCDVSGFYPSDIAVEWESDGQPENNYKTTPPVLDSDGSFFLYSKLTVDKSRWEQGDVFSCSVMHEALHNHYTQKSLSLSPGK
scFv-Fc: not shown
light: DIVMTQSPDSLAVSLGERATLSCRASQDVGTAVDWYQQKPDQSPKLLIYWASTRHTGVPDRFTGSGSGTDFTLTISSLQAEDVAVYFCQQYNSYPLTFGAGTKVEIKRTVAAPSVFIFPPSDEQLKSGTASVVCLLNNFYPREAKVQWKVDNALQSGNSQESVTEQDSKDSTYSLSSTLTLSKADYEKHKVYACEVTHQGLSSPVTKSFNRGEC
As for B1, the Kd with Human PSMA was found to be 0.4 nM; in the assay with Cyno PSMA, 0.2 nM.

Broadly, the Kd is the equilibrium constant for the complex coming apart.
